Measurements from patent US20120087916A1, “ANTI-ICAM-1 ANTIBODY, USES AND METHODS” (priority 2009, published 2012).
Entries after “also recorded” stand apart in the source; their conditions may differ.

What was measured:
[1] = test system: OPM-2 myeloma cells; test: SCID xenograft of ICAM-1-negative myeloma cell line; format: in vivo, SCID mice; details: ICAM-1-negative OPM-2; 2 mg/kg twice-weekly intraperitoneal from Day 1
Experimental: (§1) Antibody treatment with 2 mg/kg BI-AB or control IgG1 was started at Day 1 and was continued on a twice-weekly intraperitoneal dosing regimen. Mice were sacrificed when tumour sizes reached the ethical limit. […] Statistical significance was calculated relative to control antibody treatment using Student t test. Statistical significance was considered for *p<0.05, **p <0.01, and ***p<0.001. ICAM-1-intercellular adhesion molecule 1; SCID=severe combined immunodeficiency

[2] = target: ICAM-1 (Homo sapiens, UniProt P05362); test: Binding of BI-AB to ICAM-1
ICAM-1, sequence (P05362 28-532): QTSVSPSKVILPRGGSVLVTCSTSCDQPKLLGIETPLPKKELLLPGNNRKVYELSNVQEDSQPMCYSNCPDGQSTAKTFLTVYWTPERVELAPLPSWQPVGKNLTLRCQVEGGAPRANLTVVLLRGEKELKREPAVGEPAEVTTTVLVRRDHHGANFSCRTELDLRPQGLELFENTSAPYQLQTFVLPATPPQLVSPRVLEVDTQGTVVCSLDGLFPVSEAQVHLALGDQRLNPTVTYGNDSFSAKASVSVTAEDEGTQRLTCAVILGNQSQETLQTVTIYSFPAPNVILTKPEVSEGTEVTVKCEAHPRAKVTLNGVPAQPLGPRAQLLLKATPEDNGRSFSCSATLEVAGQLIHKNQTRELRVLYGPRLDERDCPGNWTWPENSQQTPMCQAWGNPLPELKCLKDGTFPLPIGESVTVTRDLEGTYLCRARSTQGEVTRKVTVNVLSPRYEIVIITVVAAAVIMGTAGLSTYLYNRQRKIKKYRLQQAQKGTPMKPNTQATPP
Description: BI-AB is a fully human immunoglobulin G subtype 1 (IgG1) monoclonal antibody expressed in Chinese Hamster Ovarian (CHO) cells. The BI-AB antibody has a theoretical molecular weight of approximately 144 kDa based on the predicted amino acid sequence. Mass spectrometry, peptide mapping and SDS-PAGE will determine molecular mass and primary and secondary structures. The biological activity is quantified using an ELISA assay, which quantitatively measures the binding of the BI-AB to ICAM-1.

[3] = test system: B-cell lymphoma; test: SCID/B-cell lymphoma tumour xenograft models; format: in vivo, SCID mice; details: prophylactic and established models; data not shown
[4] = Pharmacokinetics in the cynomolgus monkey, escalation dose toxicity study; format: in vivo, cynomolgus monkeys; details: 1-100 mg/kg
Description: • Table 1: BI-AB levels associated 10, 50, and 90% anti-tumour activity correlated with levels of receptor binding. • a—determined in the most sensitive setting in the ARH-77/SCID in vivo tumour model, i.e., early antibody administration. • b—determined in the advanced ARH-77/SCID in vivo tumour model (mice carrying established tumours) • Table 2: Single dose pharmacokinetics of BI-AB following single IV bolus injection • Table 3: Pharmacokinetics of BI-AB following single escalating IV bolus injection The pharmacokinetics of BI-AB was investigated at dose levels of 1, 2, 8, 20, 50, and 100 mg/kg in the escalation dose toxicity study in cynomolgus monkeys. Samples for plasma analysis were taken after all dose levels. […] Cmax were generally obtained at the first sampling time of 0.5 hours post-dose. However at 100 mg/kg the Cmax was reached 8 hours post-dose. Serum concentrations declined in a generally bi-phasic manner with an elimination time ranging from 69 to 264 hours. […] There was some carry-over of the compound between treatments due to the long half-life of BI-AB.
The pharmacokinetics of BI-AB was investigated at dose levels of 1, 2, 8, 20, 50, and 100 mg/kg in the escalation dose toxicity study in cynomolgus monkeys. Samples for plasma analysis were taken after all dose levels.
Cmax were generally obtained at the first sampling time of 0.5 hours post-dose. However at 100 mg/kg the Cmax was reached 8 hours post-dose. Serum concentrations declined in a generally bi-phasic manner with an elimination time ranging from 69 to 264 hours. […] There was some carry-over of the compound between treatments due to the long half-life of BI-AB.

[5] = target: T1, ICAM-1 epitopes on ARH-77 myeloma cells (Homo sapiens, UniProt P05362); test: Receptor occupancy / binding in vitro using human tumour cells
T1 construct: endogenous in cells; host or cells: ARH-77 myeloma cells
T1 sequence (P05362 28-532): as above
Experimental: (§2) FIG. 5: Calculation of MABEL: determination of BI-AB IC10 value using in vivo pharmacology assay and in vitro correlation with binding. • (A) Tumour cells were injected subcutaneously into the left flank of SCID mice (n=8 per group). Mice received twice-weekly intraperitoneal injections with BI-AB at a range of 20 to 0.002 mg/kg (until control group had to be sacrificed). […] IC10=concentration at which there is 10% inhibition; ELISA=enzyme-linked immunosorbent assay; MABEL=minimum anticipated biological effect level. • (D) ARH-77myeloma cells were injected subcutaneously into the left flank of SCID mice (n=8 per group). Mice received twice-weekly intravenous injections of BI-AB at 0.002-20 mg/kg until control group had to be sacrificed. Blood samples were collected at termination and analyzed by ELISA to determine BI-AB serum trough levels. Trough BI-AB serum concentrations were plotted as a function of anti-tumor activity and fitted using five parameter log-log curve and XLfit software (IDBS, Guildford, United Kingdom).
Receptor occupancy has been examined in vitro using human tumour cells and the BI-AB level corresponding to binding saturation has been identified. It is assumed that at this concentration, ICAM-1 epitopes on cells of the vascular compartment should be saturated, and any side effects related to the physiological function of ICAM-1 are expected to be […]. […]

[6] = Pharmacokinetics in the rat, single IV bolus injection; format: in vivo
Description: A pharmacokinetic (PK) study of BI-AB in the rat has been performed. In this study, the doses of the antibody tested were in such excess in relation to the target antigen concentration that any binding to the target antigen would not be of significant importance for the PK profile. This fact serves as the rationale for performing a PK study in a species where the antibody will not bind to the target antigen. The pharmacokinetics of BI-AB in the rat has been investigated following a single IV bolus injection at dose levels of 0.5, 2.5 and 10 mg/kg.

[7] = test system: NCI-H929, EJM, RPMI-8226 myeloma cells; test: SCID xenografts of CD20-negative ICAM-1-positive myeloma cell lines; format: in vivo, SCID mice; details: CD20-negative ICAM-1-positive lines, 2 mg/kg twice-weekly intraperitoneal from Day 1
Experimental: as §1

[8] = test system: human multiple myeloma tumour cells; test: Disseminated tumour model (advanced experimental multiple myeloma), intravenous tumour cell inoculation; format: in vivo, SCID mice
Experimental: SCID mice were irradiated 5 days before intravenous tumour cell inoculation. Animals received intravenous injections with antibody at 2 mg/kg or bortezomib (Velcade) at 0.5 mg/kg on Days 7, 10, 14, and 17 (as indicated by arrows in graph). There were 8 mice per treatment group. Statistical significance was calculated using Log-rank Graphpad Prism software. Significance was determined at *p<0.05, **p<0.01, and ***p<0.001.
BI-AB anti-myeloma activity has additionally been investigated in a disseminated tumour model (a well-established experimental model of human multiple myeloma) at an independent contract research organization. […] After 190 days, when the experiment was terminated, 25% of BI-AB-treated mice were still alive.

[9] = test system: ARH-77 myeloma cells; test: SCID/ARH-77 myeloma xenograft model (early and established subcutaneous tumours); format: in vivo, SCID mice
Experimental: There were 8 to 10 animals per treatment group. • A and B: Early tumour model; treatment started 1 day after myeloma cell inoculation and continued until tumour volumes reached the ethical limit. (A) Tumour volume as a function of antibody dose. (B) Kaplan-Meier survival graph as a function of antibody dose. • (C) Established xenograft model; treatment with antibodies started when tumours reached a volume of approximately 100 mm^3. […] Statistical significance was calculated relative to control antibody treatment using Student t test (tumour volume) or the log-rank test (mouse survival) using Graphpad Prism software. Statistical significance was considered for *p<0.05, **p<0.01, and ***p<0.001. Graphs illustrate representative experiments out of several performed.
Blood samples were collected at termination and analyzed by ELISA to determine BI-AB serum trough levels. Trough BI-AB serum concentrations were plotted as a function of anti-tumor activity and fitted using five parameter log-log curve and XLfit software (IDBS, Guildford, United Kingdom).

[10] = BI-AB serum trough levels by ELISA in the ARH-77/SCID tumour model; format: in vivo, SCID mice; details: corresponds to 0.004 mg/kg dose; from fitted five parameter log-log curve
Experimental: as §2
Mean BI-AB serum trough concentrations of different mouse dose groups were determined by ELISA analysis of blood samples collected at different time-points during the course of in vivo experimentation. […]

[11] = single IV bolus 0.5, 2.5 and 10 mg/kg

B1: BI-AB: fully human, high-affinity IgG1 mAb specific for ICAM-1 generated from the n-CoDeR human antibody fragment library (antibody, V domains shown)
VH: EVQLLESGGGLVQPGGSLRLSCAASGFTFSNAWMSWVRQAPGKGLEWVAFIWYDGSNKYYADSVKGRFTISRDNSKNTLYLQMNSLRAEDTAVYYCARYSGWYFDYWGQGTLVTVSS
VL: QSVLTQPPSASGTPGQRVTISCTGSSSNIGAGYDVHWYQQLPGTAPKLLIYDNNNRPSGVPDRFSGSKSGTSASLAISGLRSEDEADYYCQSYDSSLSAWLFGGGTKLTVLG
For B1, the “effect on tumour growth” value [1] was “no effect on tumour growth; also recorded: did not affect tumour growth”, the “affinity and specificity of binding to ICAM-1” value [2] was “binds with high affinity and specificity to ICAM-1” and the anti-lymphoma activity [3] was “significant anti-lymphoma activity”. For the same molecule, the “systemic exposure versus dose” value [4] was “increased roughly in proportion to the dose”, the “systemic exposure versus gender” value [4] was “without gender deviations” and the “volumes of distribution versus dose” value [4] was “no dose-dependency”. For the same molecule, the “ARH-77 ICAM-1 epitopes occupied by antibody in vitro” value ([5]; at 28 ng/mL BI-AB) was “approximately 30%”, the “binding to ARH-77 myeloma cells” value ([5]; in vitro) was “binds to ARH-77 myeloma cells in a dose-dependent manner” and the “systemic exposure versus sex” value ([6]; single IV bolus) was “generally independent of sex”. The “clearance and volumes of distribution (Vz and Vss) versus dose” value [6, 11] was “dose independent”, the “systemic exposure versus dose” value [6, 11] was “increased roughly in proportion to dose” and the “time of maximum serum concentrations” value [6, 11] was “within the first hour”. The “anti-myeloma activity (tumour growth)” value [7] was “significant and ICAM-1-dependent anti-myeloma activity”, the “survival compared with control-treated mice” value ([8]; 2 mg/kg intravenous Days 7, 10, 14, 17 (or start 1 day) after tumour cell inoculation) was “confers protection against advanced experimental multiple myeloma; also recorded: significantly prolonged survival” and the “benchmark against Bortezomib” value ([8]; BI-AB 2 mg/kg vs bortezomib (Velcade) 0.5 mg/kg) was “superior”. For the same molecule, the “treated mice still alive” value ([8]; after 190 days, when the experiment was terminated) was 25%, the “efficacy and potency compared with Rituximab (reducing tumour growth, prolonging survival)” value ([9]; SCID/ARH-77, prophylactic and established xenograft models, Rituximab e.g. 20 mg/kg) was “more efficacious and potent compared with Rituximab; also recorded: comparable or improved activity” and the “in vivo anti-myeloma efficacy (tumour volume, survival)” value ([9]; SCID/ARH-77 xenograft, twice-weekly intraperitoneal, doses 0.016, 0.16, 1.6 (16) mg/kg) was “significant in vivo anti-myeloma efficacy and potency”. For the same molecule, the “MABEL/IC10 dose (10% inhibition of tumour growth)” value ([9]; early antibody administration, twice-weekly dosing regimen) was 4 µg/kg and the “steady state trough serum concentration at IC10 inhibition of tumour growth” value [10] was 0.028 µg/mL.
